Legend:
Mre11;Rad50 R833E/R834E = Mre11;Rad50 R833E/R834E (Pyrococcus furiosus;Pyrococcus furiosus, UniProt Q8U1N9;P58301 1-426;1-882, |R833E;R834E); assay: fluorescence polarization
Mre11;Rad50 S115E/S116E = Mre11;Rad50 S115E/S116E (Pyrococcus furiosus;Pyrococcus furiosus, UniProt Q8U1N9;P58301 1-426;1-882, |S115E;S116E); assay: fluorescence polarization
[1] = target: Mre11 K144E;Rad50 full-length (Pyrococcus furiosus;Pyrococcus furiosus, UniProt Q8U1N9;P58301 1-426;1-882, K144E|); assay: fluorescence polarization
Mre11 K144E;Rad50 full-length, sequence (P58301 whole entry, stated change not applied, one chain of several): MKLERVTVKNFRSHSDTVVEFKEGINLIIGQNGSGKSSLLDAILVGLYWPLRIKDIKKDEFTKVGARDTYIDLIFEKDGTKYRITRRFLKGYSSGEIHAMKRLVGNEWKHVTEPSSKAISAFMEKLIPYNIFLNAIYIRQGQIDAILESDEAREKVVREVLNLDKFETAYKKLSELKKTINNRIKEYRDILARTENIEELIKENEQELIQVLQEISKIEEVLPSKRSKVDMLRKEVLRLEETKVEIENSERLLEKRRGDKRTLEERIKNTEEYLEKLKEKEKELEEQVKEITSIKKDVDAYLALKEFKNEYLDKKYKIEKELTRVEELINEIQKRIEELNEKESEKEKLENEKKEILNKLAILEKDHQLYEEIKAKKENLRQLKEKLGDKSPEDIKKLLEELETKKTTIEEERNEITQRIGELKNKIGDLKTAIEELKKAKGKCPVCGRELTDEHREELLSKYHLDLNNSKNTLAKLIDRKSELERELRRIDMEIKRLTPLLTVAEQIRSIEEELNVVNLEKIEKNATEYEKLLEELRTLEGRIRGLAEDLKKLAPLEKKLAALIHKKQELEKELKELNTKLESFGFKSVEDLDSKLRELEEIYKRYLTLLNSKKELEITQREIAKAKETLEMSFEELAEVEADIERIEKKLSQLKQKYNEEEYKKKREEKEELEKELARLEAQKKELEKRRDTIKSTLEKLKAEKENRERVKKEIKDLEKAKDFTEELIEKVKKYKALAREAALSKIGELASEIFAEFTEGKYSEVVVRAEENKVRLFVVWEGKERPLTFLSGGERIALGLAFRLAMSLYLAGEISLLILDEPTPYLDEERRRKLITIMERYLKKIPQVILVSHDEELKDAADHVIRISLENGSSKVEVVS

Mre11;Rad50 K172E = Mre11;Rad50 K172E (Pyrococcus furiosus;Pyrococcus furiosus, UniProt Q8U1N9;P58301 1-426;1-882, |K172E); assay: fluorescence polarization
Mre11;Rad50 K172E, sequence (P58301 whole entry K172E, one chain of several): as the sequence (P58301 whole entry, stated change not applied, one chain of several) above, with K172E counted along it

[2] = target: Mre11 K111E;Rad50 full-length (Pyrococcus furiosus;Pyrococcus furiosus, UniProt Q8U1N9;P58301 1-426;1-882, K111E|); assay: fluorescence polarization
Mre11 K111E;Rad50 full-length, sequence (P58301 whole entry, stated change not applied, one chain of several): as the sequence (P58301 whole entry, stated change not applied, one chain of several) above

Mre11;Rad50 R868E = Mre11;Rad50 R868E (Pyrococcus furiosus;Pyrococcus furiosus, UniProt Q8U1N9;P58301 1-426;1-882, |R868E); assay: fluorescence polarization
Mre11;Rad50 R868E, sequence (P58301 whole entry R868E, one chain of several): as the sequence (P58301 whole entry, stated change not applied, one chain of several) above, with R868E counted along it

[3] = target: Mre11 K365E;Rad50 full-length (Pyrococcus furiosus;Pyrococcus furiosus, UniProt Q8U1N9;P58301 1-426;1-882, K365E|); assay: fluorescence polarization
Mre11 K365E;Rad50 full-length, sequence (P58301 whole entry K365E, one chain of several): as the sequence (P58301 whole entry, stated change not applied, one chain of several) above, with K365E counted along it

Mre11;Rad50 full-length = Mre11;Rad50 full-length (Pyrococcus furiosus;Pyrococcus furiosus, UniProt Q8U1N9;P58301 1-426;1-882, |); assay: fluorescence polarization
Mre11;Rad50 full-length, sequence (P58301 whole entry, one chain of several): as the sequence (P58301 whole entry, stated change not applied, one chain of several) above

[4] = target: Mre11 R160E;Rad50 full-length (Pyrococcus furiosus;Pyrococcus furiosus, UniProt Q8U1N9;P58301 1-426;1-882, R160E|); assay: fluorescence polarization
Mre11 R160E;Rad50 full-length, sequence (P58301 whole entry, stated change not applied, one chain of several): as above

Mre11;Rad50NBD [5] = target: T1, Mre11;Rad50NBD (Pyrococcus furiosus;Pyrococcus furiosus, UniProt Q8U1N9;P58301;P58301 1-426;1-195;709-882, |); assay: NMR PRE
T1 sequence (P58301 1-195, chain 1 of 2): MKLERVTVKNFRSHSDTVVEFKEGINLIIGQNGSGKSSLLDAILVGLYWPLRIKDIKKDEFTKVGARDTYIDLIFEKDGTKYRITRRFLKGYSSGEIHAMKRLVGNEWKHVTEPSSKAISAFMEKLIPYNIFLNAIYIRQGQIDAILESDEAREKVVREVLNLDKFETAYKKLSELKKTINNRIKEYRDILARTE
T1 sequence (P58301 709-882, chain 2 of 2): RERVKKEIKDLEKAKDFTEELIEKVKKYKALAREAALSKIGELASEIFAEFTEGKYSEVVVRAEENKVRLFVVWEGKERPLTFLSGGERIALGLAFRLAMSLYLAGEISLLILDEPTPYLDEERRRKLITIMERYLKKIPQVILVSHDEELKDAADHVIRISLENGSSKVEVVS

Mre11;Rad50NBD [6] = target: T1, Mre11;Rad50NBD; assay: NMR CSP titration
Mre11;Rad50NBD [7] = target: T1, Mre11;Rad50NBD; assay: NMR CSP

Mre11;Rad50 S115E/S116E, sequence (P58301 whole entry S115E/S116E, one chain of several): as the sequence (P58301 whole entry, stated change not applied, one chain of several) above, with S115E, S116E counted along it
Mre11;Rad50 R833E/R834E, sequence (P58301 whole entry R833E/R834E, one chain of several): as the sequence (P58301 whole entry, stated change not applied, one chain of several) above, with R833E, R834E counted along it

B1: 40-mer dsDNA (dsDNA)
DNA 1: GTGTTCGGACTCTGCCTCAAGACGGTAGTCAACGTGCTTG
DNA 2: CAAGCACGTTGACTACCGTCTTGAGGCAGAGTCCGAACAC
For B1, the Kd (Mre11;Rad50 R833E/R834E) was 1080 ± 130 nM, the Kd (Mre11;Rad50 S115E/S116E) was 580 ± 60 nM and the Kd [1] was 2120 ± 420 nM. For the same binder, the Kd (Mre11;Rad50 K172E) was 580 ± 30 nM, the Kd [2] was 1070 ± 110 nM and the Kd (Mre11;Rad50 R868E) was 750 ± 70 nM. For the same binder, the Kd [3] was 710 ± 50 nM, the Kd (Mre11;Rad50 full-length) was 590 ± 50 nM and the Kd [4] was 960 ± 60 nM.

CACGCACGTAGAAGCTTTTGCTTCTACGTGCGTGAC (structured_DNA, phosphorothioate at nt 2) [hairpin 2S]: binds (Mre11;Rad50NBD [5]).

CACGCACGTAGAAGCTTTTGCTTCTACGTGCGTGAC (structured_DNA, phosphorothioate at nt 30) [hairpin 30S]: binds (Mre11;Rad50NBD [5]).

CACGCACGTAGAAGCTTTTGCTTCTACGTGCGTGAC (structured_DNA, phosphorothioate at nt 24) [hairpin 24S]: binds (Mre11;Rad50NBD [5]).

CACGCACGTAGAAGCTTTTGCTTCTACGTGCGTGAC (structured_DNA) [15-bp hairpin DNA] gave a Kd (Mre11;Rad50NBD [6]) of about 5400 nM.

CACGCACGTAGAAGCTTTTGCTTCTACGTGCGTGAC (structured_DNA, phosphorothioate at nt 6) [hairpin 6S]: binds (Mre11;Rad50NBD [5]).

CACGCACGTAGAAGCTTTTGCTTCTACGTGCGTGAC (structured_DNA, phosphorothioate at nt 17) [hairpin 17S]: binds (Mre11;Rad50NBD [5]).

CACGCACGTAGAAGCTTTTGCTTCTACGTGCGTGAC (structured_DNA, phosphorothioate at nt 36) [hairpin 36S]: binds (Mre11;Rad50NBD [5]).

B2: 50-bp dsDNA (dsDNA)
DNA 1: CTGCAGGGTTTTTGTTCCAGTCTGTAGCACTGTGTAAGACAGGCCAGATG
DNA 2: CATCTGGCCTGTCTTACACAGTGCTACAGACTGGAACAAAAACCCTGCAG
B2: binds (Mre11;Rad50NBD [7]).

— paper PMC11965522
